Assay results: paper PMC8274477 (Frontiers in Cell and Developmental Biology, 2021)
Values belong to the binder of their own block, whether it stands above or below them.

Molecular target: T1, OTULIN (OTU deubiquitinase with linear linkage specificity, FAM105B), His-tagged, biotin-labelled (human, UniProt Q96BN8 1-352, biotin (label; sites not stated))
T1 construct: OTULIN (FAM105B), cDNA in pET28a; also called HIS-OTULIN; source: E. coli BL21 (DE3), purified (His-tag Purification Resin), labelled with biotin; not shown: His6, N-terminal, kept
Test: peptide or protein array; HuProt human proteome microarray; 5 ug/5 ml biotin-labelled LUBAC or OTULIN in solution, 1 h at room temperature; Cy5-streptavidin, scanned at 635 nm; BSA as negative control; hits: Z-score >= 3 and I_(Mean_Ratio) >= 1.4
Conditions: both partners purified

binding result: binds
B1: NABP1 (natural protein, human, UniProt Q96AH0 1-204, looked up)
chain: MNRVNDPLIFIRDIKPGLKNLNVVFIVLEIGRVTKTKDGHEVRSCKVADKTGSITISVWDEIGGLIQPGDIIRLTRGYASMWKGCLTLYTGRGGELQKIGEFCMVYSEVPNFSEPNPDYRGQQNKGAQSEQKNNSMNSNMGTGTFGPVGNGVHTGPESREHQFSHAGRSNGRGLINPQLQGTASNQTVMTTISNGRDPRRAFKR
notes: NABP1; protein on the human proteome microarray; source: spotted on the HuProt human proteome microarray

binding result: binds
B2: POP7 (natural protein, human, UniProt O75817 1-140, looked up)
chain: MAENREPRGAVEAELDPVEYTLRKRLPSRLPRRPNDIYVNMKTDFKAQLARCQKLLDGGARGQNACSEIYIHGLGLAINRAINIALQLQAGSFGSLQVAANTSTVELVDELEPETDTREPLTRIRNNSAIHIRVFRVTPK
notes: POP7; protein on the human proteome microarray; source: spotted on the HuProt human proteome microarray

binding result: binds
B3: NME2 (natural protein, human, UniProt P22392 1-152, looked up)
chain: MANLERTFIAIKPDGVQRGLVGEIIKRFEQKGFRLVAMKFLRASEEHLKQHYIDLKDRPFFPGLVKYMNSGPVVAMVWEGLNVVKTGRVMLGETNPADSKPGTIRGDFCIQVGRNIIHGSDSVKSAEKEISLWFKPEELVDYKSCAHDWVYE
notes: NME2; protein on the human proteome microarray; source: spotted on the HuProt human proteome microarray

binding result: binds
B4: NUDT16L1 (natural protein, human, UniProt Q9BRJ7 1-211, looked up)
chain: MSTAAVPELKQISRVEAMRLGPGWSHSCHAMLYAANPGQLFGRIPMRFSVLMQMRFDGLLGFPGGFVDRRFWSLEDGLNRVLGLGLGCLRLTEADYLSSHLTEGPHRVVAHLYARQLTLEQLHAVEISAVHSRDHGLEVLGLVRVPLYTQKDRVGGFPNFLSNAFVSTAKCQLLFALKVLNMMPEEKLVEALAAATEKQKKALEKLLPASS
notes: NUDT16L1; protein on the human proteome microarray; source: spotted on the HuProt human proteome microarray

binding result: binds
B5: MPST (natural protein, human, UniProt P25325 1-297, looked up)
chain: MASPQLCRALVSAQWVAEALRAPRAGQPLQLLDASWYLPKLGRDARREFEERHIPGAAFFDIDQCSDRTSPYDHMLPGAEHFAEYAGRLGVGAATHVVIYDASDQGLYSAPRVWWMFRAFGHHAVSLLDGGLRHWLRQNLPLSSGKSQPAPAEFRAQLDPAFIKTYEDIKENLESRRFQVVDSRATGRFRGTEPEPRDGIEPGHIPGTVNIPFTDFLSQEGLEKSPEEIRHLFQEKKVDLSKPLVATCGSGVTACHVALGAYLCGKPDVPIYDGSWVEWYMRARPEDVISEGRGKTH
notes: MPST; protein on the human proteome microarray; source: spotted on the HuProt human proteome microarray

binding result: binds
B6: KLHDC9 (natural protein, human, UniProt Q8NEP7 1-349, looked up)
chain: MAVAVPPGRAAGSGWAWRPVARDALLARAFHSCTELRGRFYLVGGLLAGGAREPSSDTVVFDPARGQAVRLGARGSPPRSHHDAAPVDGRWLCVVGGWDGSRRLATVTALDTERGVWEAWTGTPGDCPPAGLSSHTCTRISDRELQVAGREGGIHTQRRYGSIYTLRLDPSARTYCYKQEGCHTASRSGHCAALLQTPGPHPGHQLLLFGGCNLAEPEVAGHWSHGKIKEEPPVAPHLMEQLARLVSSGQGSQKGPHGLRHHSCSVVGPFAVLFGGETLTRARDTICNDLYIYDTRTSPPLWFHFPCADRGMKRMGHRTCLWNDQLYLVGGFGEDGRTASPQVCILDFI
notes: KLHDC9; protein on the human proteome microarray; source: spotted on the HuProt human proteome microarray

binding result: binds
B7: PYCRL (natural protein, human, UniProt Q53H96 1-274, looked up)
chain: MAAAEPSPRRVGFVGAGRMAGAIAQGLIRAGKVEAQHILASAPTDRNLCHFQALGCRTTHSNQEVLQSCLLVIFATKPHVLPAVLAEVAPVVTTEHILVSVAAGVSLSTLEELLPPNTRVLRVLPNLPCVVQEGAIVMARGRHVGSSETKLLQHLLEACGRCEEVPEAYVDIHTGLSGSGVAFVCAFSEALAEGAVKMGMPSSLAHRIAAQTLLGTAKMLLHEGQHPAQLRSDVCTPGGTTIYGLHALEQGGLRAATMSAVEAATCRAKELSRK
notes: PYCRL; protein on the human proteome microarray; source: spotted on the HuProt human proteome microarray

binding result: binds
B8: NUDT6 (natural protein, human, UniProt P53370 1-316, looked up)
chain: MRQPLSWGRWRAMLARTYGPGPSAGYRWASGAQGYVRNPPVGACDLQGELDRFGGISVRLARLDALDRLDAAAFQKGLQAAVQQWRSEGRTAVWLHIPILQSRFIAPAASLGFCFHHAESDSSTLTLWLREGPSRLPGYASHQVGVAGAVFDESTRKILVVQDRNKLKNMWKFPGGLSEPEEDIGDTAVREVFEETGIKSEFRSVLSIRQQHTNPGAFGKSDMYIICRLKPYSFTINFCQEECLRCEWMDLNDLAKTENTTPITSRVARLLLYGYREGFDKIDLTVEELPAVYTGLFYKLYHKELPENYKTMKGID
notes: NUDT6; protein on the human proteome microarray; source: spotted on the HuProt human proteome microarray

binding result: binds
B9: NECAP2 (natural protein, human, UniProt Q9NVZ3 1-263, looked up)
chain: MEESGYESVLCVKPDVHVYRIPPRATNRGYRAAEWQLDQPSWSGRLRITAKGQMAYIKLEDRTSGELFAQAPVDQFPGTAVESVTDSSRYFVIRIEDGNGRRAFIGIGFGDRGDAFDFNVALQDHFKWVKQQCEFAKQAQNPDQGPKLDLGFKEGQTIKLNIANMKKKEGAAGNPRVRPASTGGLSLLPPPPGGKTSTLIPPPGEQLAVGGSLVQPAVAPSSGGAPVPWPQPNPATADIWGDFTKSTGSTSSQTQPGTGWVQF
notes: NECAP2; protein on the human proteome microarray; source: spotted on the HuProt human proteome microarray

binding result: binds
B10: PYCR2 (natural protein, human, UniProt Q96C36 1-320, looked up)
chain: MSVGFIGAGQLAYALARGFTAAGILSAHKIIASSPEMNLPTVSALRKMGVNLTRSNKETVKHSDVLFLAVKPHIIPFILDEIGADVQARHIVVSCAAGVTISSVEKKLMAFQPAPKVIRCMTNTPVVVQEGATVYATGTHALVEDGQLLEQLMSSVGFCTEVEEDLIDAVTGLSGSGPAYAFMALDALADGGVKMGLPRRLAIQLGAQALLGAAKMLLDSEQHPCQLKDNVCSPGGATIHALHFLESGGFRSLLINAVEASCIRTRELQSMADQEKISPAALKKTLLDRVKLESPTVSTLTPSSPGKLLTRSLALGGKKD
notes: PYCR2; protein on the human proteome microarray; source: spotted on the HuProt human proteome microarray

binding result: binds
B11: ODAM (natural protein, human, UniProt A1E959 16-279, looked up)
chain: APLIPQRLMSASNSNELLLNLNNGQLLPLQLQGPLNSWIPPFSGILQQQQQAQIPGLSQFSLSALDQFAGLLPNQIPLTGEASFAQGAQAGQVDPLQLQTPPQTQPGPSHVMPYVFSFKMPQEQGQMFQYYPVYMVLPWEQPQQTVPRSPQQTRQQQYEEQIPFYAQFGYIPQLAEPAISGGQQQLAFDPQLGTAPEIAVMSTGEEIPYLQKEAINFRHDSAGVFMPSTSPKPSTTNVFTSAVDQTITPELPEEKDKTDSLREP
notes: ODAM; protein on the human proteome microarray; source: spotted on the HuProt human proteome microarray

binding result: binds
B12: NTPCR (natural protein, human, UniProt Q9BSD7 1-190, looked up)
chain: MARHVFLTGPPGVGKTTLIHKASEVLKSSGVPVDGFYTEEVRQGGRRIGFDVVTLSGTRGPLSRVGLEPPPGKRECRVGQYVVDLTSFEQLALPVLRNADCSSGPGQRVCVIDEIGKMELFSQLFIQAVRQTLSTPGTIILGTIPVPKGKPLALVEEIRNRKDVKVFNVTKENRNHLLPDIVTCVQSSRK
notes: NTPCR; protein on the human proteome microarray; source: spotted on the HuProt human proteome microarray

binding result: binds
B13: MAGEB1 (natural protein, human, UniProt P43366 1-347, looked up)
chain: MPRGQKSKLRAREKRRKAREETQGLKVAHATAAEKEECPSSSPVLGDTPTSSPAAGIPQKPQGAPPTTTAAAAVSCTESDEGAKCQGEENASFSQATTSTESSVKDPVAWEAGMLMHFILRKYKMREPIMKADMLKVVDEKYKDHFTEILNGASRRLELVFGLDLKEDNPSGHTYTLVSKLNLTNDGNLSNDWDFPRNGLLMPLLGVIFLKGNSATEEEIWKFMNVLGAYDGEEHLIYGEPRKFITQDLVQEKYLKYEQVPNSDPPRYQFLWGPRAYAETTKMKVLEFLAKMNGATPRDFPSHYEEALRDEEERAQVRSSVRARRRTTATTFRARSRAPFSRSSHPM
notes: MAGEB1; protein on the human proteome microarray; source: spotted on the HuProt human proteome microarray

binding result: binds
B14: NAT6 (natural protein, human, UniProt Q93015 1-286, looked up)
chain: MELILSTSPAELTLDPACQPKLPLDSTCQPEMTFNPGPTELTLDPEHQPEETPAPSLAELTLEPVHRRPELLDACADLINDQWPRSRTSRLHSLGQSSDAFPLCLMLLSPHPTLEAAPVVVGHARLSRVLNQPQSLLVETVVVARALRGRGFGRRLMEGLEVFARARGFRKLHLTTHDQVHFYTHLGYQLGEPVQGLVFTSRRLPATLLNAFPTAPSPRPPRKAPNLTAQAAPRGPKGPPLPPPPPLPECLTISPPVPSGPPSKSLLETQYQNVRGRPIFWMEKDI
notes: NAT6; protein on the human proteome microarray; source: spotted on the HuProt human proteome microarray

binding result: binds
B15: LOR (natural protein, human, UniProt P23490 1-312, looked up)
chain: MSYQKKQPTPQPPVDCVKTSGGGGGGGGSGGGGCGFFGGGGSGGGSSGSGCGYSGGGGYSGGGCGGGSSGGGGGGGIGGCGGGSGGSVKYSGGGGSSGGGSGCFSSGGGGSGCFSSGGGGSSGGGSGCFSSGGGGSSGGGSGCFSSGGGGFSGQAVQCQSYGGVSSGGSSGGGSGCFSSGGGGGSVCGYSGGGSGCGGGSSGGSGSGYVSSQQVTQTSCAPQPSYGGGSSGGGGSGGSGCFSSGGGGGSSGCGGGSSGIGSGCIISGGGSVCGGGSSGGGGGGSSVGGSGSGKGVPICHQTQQKQAPTWPSK
notes: LOR; protein on the human proteome microarray; source: spotted on the HuProt human proteome microarray

binding result: binds
B16: PDCD6 (natural protein, human, UniProt O75340 1-191, looked up)
chain: MAAYSYRPGPGAGPGPAAGAALPDQSFLWNVFQRVDKDRSGVISDTELQQALSNGTWTPFNPVTVRSIISMFDRENKAGVNFSEFTGVWKYITDWQNVFRTYDRDNSGMIDKNELKQALSGFGYRLSDQFHDILIRKFDRQGRGQIAFDDFIQGCIVLQRLTDIFRRYDTDQDGWIQVSYEQYLSMVFSIV
notes: PDCD6; protein on the human proteome microarray; source: spotted on the HuProt human proteome microarray

binding result: binds
B17: OVOL2 (natural protein, human, UniProt Q9BRP0 1-275, looked up)
chain: MPKVFLVKRRSLGVSVRSWDELPDEKRADTYIPVGLGRLLHDPPEDCRSDGGSSSGSGSSSAGEPGGAESSSSPHAPESETPEPGDAEGPDGHLATKQRPVARSKIKFTTGTCSDSVVHSCDLCGKGFRLQRMLNRHLKCHNQVKRHLCTFCGKGFNDTFDLKRHVRTHTGIRPYKCNVCNKAFTQRCSLESHLKKIHGVQQQYAYKQRRDKLYVCEDCGYTGPTQEDLYLHVNSAHPGSSFLKKTSKKLAALLQGKLTSAHQENTSLSEEEERK
notes: OVOL2; protein on the human proteome microarray; source: spotted on the HuProt human proteome microarray

binding result: binds
B18: QKI (natural protein, human, UniProt Q96PU8 1-341, looked up)
chain: MVGEMETKEKPKPTPDYLMQLMNDKKLMSSLPNFCGIFNHLERLLDEEISRVRKDMYNDTLNGSTEKRSAELPDAVGPIVQLQEKLYVPVKEYPDFNFVGRILGPRGLTAKQLEAETGCKIMVRGKGSMRDKKKEEQNRGKPNWEHLNEDLHVLITVEDAQNRAEIKLKRAVEEVKKLLVPAAEGEDSLKKMQLMELAILNGTYRDANIKSPALAFSLAATAQAAPRIITGPAPVLPPAALRTPTPAGPTIMPLIRQIQTAVMPNGTPHPTAAIVPPGPEAGLIYTPYEYPYTLAPATSILEYPIEPSGVLGAVATKVRRHDMRVHPYQRIVTADRAATGN
notes: QKI; protein on the human proteome microarray; source: spotted on the HuProt human proteome microarray

binding result: binds
B19: MSI2 (natural protein)
chain: not shown
notes: MSI2; protein on the human proteome microarray; source: spotted on the HuProt human proteome microarray

binding result: binds
B20: MIF (natural protein, human, UniProt P14174 1-115, looked up)
chain: MPMFIVNTNVPRASVPDGFLSELTQQLAQATGKPPQYIAVHVVPDQLMAFGGSSEPCALCSLHSIGKIGGAQNRSYSKLLCGLLAERLRISPDRVYINYYDMNAANVGWNNSTFA
notes: MIF; protein on the human proteome microarray; source: spotted on the HuProt human proteome microarray
